Measured values: publication PMC5413349

Molecular target: human cytoplasmic dynein-1 complex (recombinant, SNAPf tag on the heavy chain) (human) (UniProt Q14204)

- mean duration of plus-end tracking events of dynein on growing microtubules with EB1 and dynactin after addition of LIS1: 14 s
B1: human full-length Lissencephaly-1 (LIS1), unlabelled (natural protein)
chain: MVLSQRQRDELNRAIADYLRSNGYEEAYSVFKKEAELDVNEELDKKYAGLLEKKWTSVIRLQKKVMELESKLNEAKEEFTSGGPLGQKRDPKEWIPRPPEKYALSGHRSPVTRVIFHPVFSVMVSASEDATIKVWDYETGDFERTLKGHTDSVQDISFDHSGKLLASCSADMTIKLWDFQGFECIRTMHGHDHNVSSVAIMPNGDHIVSASRDKTIKMWEVQTGYCVKTFTGHREWVRMVRPNQDGTLIASCSNDQTVRVWVVATKECKAELREHEHVVECISWAPESSYSSISEATGSETKKSGKPGPFLLSGSRDKTIKMWDVSTGMCLMTLVGHDNWVRGVLFHSGGKFILSCADDKTLRVWDYKNKRCMKTLNAHEHFVTSLDFHKTAPYVVTGSVDQTVKVWECR
